Data reported in article PMC11050402.

What was measured:
[1] = biological target: human serum albumin (human) (UniProt P02768); experiment: SPR; Biacore T200, as described by Yin and co-authors (ref. 40); DOTA conjugates without radionuclide
[2] = biological target: murine serum albumin (murine) (UniProt P07724); experiment: as above
[3] = biological target: human epidermal growth factor receptor type 2 (HER2) (human (endogenous in SKOV-3 and BT-474)) (UniProt P04626); experiment: radioligand binding; LigandTracer Yellow on living SKOV-3 cells, 3 and 9 nM (1, 3 and 9 nM for [177Lu]Lu-G3), room temperature, with 100 nM human serum albumin; InteractionMap analysis, 1:2 model; apparent

Chain of UniProt P02768 (P02768 25-609): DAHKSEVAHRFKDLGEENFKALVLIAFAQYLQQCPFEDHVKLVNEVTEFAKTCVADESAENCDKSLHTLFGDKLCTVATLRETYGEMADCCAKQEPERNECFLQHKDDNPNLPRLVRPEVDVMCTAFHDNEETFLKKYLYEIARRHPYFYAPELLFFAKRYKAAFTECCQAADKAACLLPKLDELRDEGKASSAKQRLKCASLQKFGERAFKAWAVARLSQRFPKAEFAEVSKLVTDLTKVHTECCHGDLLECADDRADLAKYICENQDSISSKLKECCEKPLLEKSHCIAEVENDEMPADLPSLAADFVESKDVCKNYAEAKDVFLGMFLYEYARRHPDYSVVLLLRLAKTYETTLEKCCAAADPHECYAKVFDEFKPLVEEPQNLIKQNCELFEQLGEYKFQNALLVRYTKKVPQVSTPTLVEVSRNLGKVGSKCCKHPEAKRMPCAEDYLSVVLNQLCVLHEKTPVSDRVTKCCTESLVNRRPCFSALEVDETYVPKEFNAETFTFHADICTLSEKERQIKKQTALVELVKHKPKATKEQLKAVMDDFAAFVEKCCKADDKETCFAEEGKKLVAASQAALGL
Chain of UniProt P07724 (P07724 25-608): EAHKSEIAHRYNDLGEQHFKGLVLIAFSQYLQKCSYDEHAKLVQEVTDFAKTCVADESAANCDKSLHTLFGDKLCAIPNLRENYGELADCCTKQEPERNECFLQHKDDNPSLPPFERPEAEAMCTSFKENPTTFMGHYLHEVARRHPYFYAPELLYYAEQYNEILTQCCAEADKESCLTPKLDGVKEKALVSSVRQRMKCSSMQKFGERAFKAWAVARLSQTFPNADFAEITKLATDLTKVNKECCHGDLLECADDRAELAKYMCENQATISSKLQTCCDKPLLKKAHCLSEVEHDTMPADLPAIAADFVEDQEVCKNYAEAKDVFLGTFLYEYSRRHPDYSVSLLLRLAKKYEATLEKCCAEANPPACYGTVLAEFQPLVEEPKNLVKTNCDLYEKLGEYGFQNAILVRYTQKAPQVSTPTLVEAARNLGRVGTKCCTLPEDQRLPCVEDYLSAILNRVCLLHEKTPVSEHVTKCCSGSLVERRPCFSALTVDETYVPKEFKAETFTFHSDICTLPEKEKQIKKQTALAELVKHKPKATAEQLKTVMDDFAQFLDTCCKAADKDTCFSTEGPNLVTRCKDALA

| Substance | Kd [1] | koff [1] | kon [1] | Kd [2] | koff [2] | kon [2] | KD1 (first interaction, 1:2 model) [3] | KD2 (second interaction, 1:2 model) [3] |
| --- | --- | --- | --- | --- | --- | --- | --- | --- |
| ABD-G3-DOTA (designed binder) | 0.0354 µM | 0.000302 s⁻¹ | 8530 M⁻¹ s⁻¹ | 0.0813 µM | 0.00191 s⁻¹ | 23500 M⁻¹ s⁻¹ | 1290 pM | 67 nM |
| G3-ABD-DOTA (designed binder) | 0.00182 µM | 0.000238 s⁻¹ | 131000 M⁻¹ s⁻¹ | 0.00846 µM | 0.00518 s⁻¹ | 61300 M⁻¹ s⁻¹ | 901 pM | 24 nM |
| non-ABD-fused DARPin G3 (control protein) (designed binder) | – | – | – | – | – | – | – | 34 nM |
